Our source for the Peptide exchange values is US20210340217A1, “NOVEL PEPTIDES AND COMBINATION OF PEPTIDES FOR USE IN IMMUNOTHERAPY AGAINST OVARIAN CANCER AND OTHER CANCERS” (Immatics Biotechnologies GmbH, priority 2017, published 2021).

In one experiment the target is HLA-A*03:01 (Homo sapiens, UniProt P04439). Nature of the experiment: MHC binding assay (UV-ligand exchange, beta2m ELISA). Conditions: peptide exchange yield. In outline: (§1)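 Peptide–MHC complexes formed by UV-induced exchange of a UV-cleavable peptide for the test peptide. Exchange yield measured by streptavidin-capture ELISA detecting β2m (HRP anti-β2m, TMB, A450) on 100-fold diluted samples. Quantified against refolded HLA-A*02:01/MLA-001 standards (15-500 ng/ml).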
For orientation: ELISA stands for enzyme-linked immunosorbent assay.
For the substance “264 (AIKVIPTVFK; listed as Homo sapiens) [compound 264]”, the Peptide exchange result is recorded as “++ (>20% = ++)”.

On to “83 (GTYAHTVNR; listed as Homo sapiens) [compound 83]”, for which the Peptide exchange entry is on record as “+++ (>50 = +++)”.

Turning to “273 (RVNAIPFTY; listed as Homo sapiens) [compound 273]”, the Peptide exchange result was “+++ (>50 = +++)”.

With “26 (RISEYLLEK; listed as Homo sapiens) [compound 26]”, the Peptide exchange entry is “++ (>20% = ++)”.

Regarding “88 (VVHAVFALK; listed as Homo sapiens) [compound 88]”, the Peptide exchange entry is “+++ (>50 = +++)”.

“257 (VTADHSHVF; listed as Homo sapiens) [compound 257]”: the Peptide exchange entry is on record as “+ (>10% = +)”.

“279 (SVSSETTKIKR; listed as Homo sapiens) [compound 279]”: the Peptide exchange entry is recorded as “++ (>20% = ++)”.

Take “258 (GAYAHTVNR; listed as Homo sapiens) [compound 258]”: the Peptide exchange entry was “+++ (>50 = +++)”.

“284 (KSLIKSWKK; listed as Homo sapiens) [compound 284]”: the Peptide exchange result was “++ (>20% = ++)”.

Turning to “277 (TTALKTTSR; listed as Homo sapiens) [compound 277]”, the Peptide exchange result is given as “+ (>10% = +)”.

Regarding “265 (QIHDHVNPK; listed as Homo sapiens) [compound 265]”, the Peptide exchange entry was “++ (>20% = ++)”.

For “109 (KTFTIKRFLAK; listed as Homo sapiens) [compound 109]”, the Peptide exchange result is listed as “++ (>20% = ++)”.

Consider “23 (GMMKGGIRK; listed as Homo sapiens) [compound 23]”, for which the Peptide exchange result was “+++ (>50 = +++)”.

In the case of “20 (RMASPVNVK; listed as Homo sapiens) [compound 20]”, the Peptide exchange result was “++++ (>75% = ++++)”.

“280 (SVSGVKTTF; listed as Homo sapiens) [compound 280]”: the Peptide exchange entry was “++ (>20% = ++)”.

On to “270 (AVFNPRFYRTY; listed as Homo sapiens) [compound 270]”, for which the Peptide exchange entry was “++ (>20% = ++)”.

In the case of “266 (ISYSGQFLVK; listed as Homo sapiens) [compound 266]”, the Peptide exchange entry is “+++ (>50 = +++)”.

On to “30 (ALEVAHRLK; listed as Homo sapiens) [compound 30]”, for which the Peptide exchange result is “++ (>20% = ++)”.

“91 (RSLRYYYEK; listed as Homo sapiens) [compound 91]”: the Peptide exchange entry was “++ (>20% = ++)”.

For the substance “104 (VLADSVTTK; listed as Homo sapiens) [compound 104]”, the Peptide exchange entry is recorded as “++ (>20% = ++)”.

Consider “263 (SSSSATISK; listed as Homo sapiens) [compound 263]”, for which the Peptide exchange result is recorded as “++ (>20% = ++)”.

Take “271 (RMFADDLHNLNK; listed as Homo sapiens) [compound 271]”: the Peptide exchange entry is “+++ (>50 = +++)”.

Regarding “21 (AVRKPIVLK; listed as Homo sapiens) [compound 21]”, the Peptide exchange result is “+++ (>50 = +++)”.

In the case of “85 (VLLGSLFSRK; listed as Homo sapiens) [compound 85]”, the Peptide exchange result is “++ (>20% = ++)”.

Turning to “106 (AAFVPLLLK; listed as Homo sapiens) [compound 106]”, the Peptide exchange entry is given as “++ (>20% = ++)”.

A further experiment addresses HLA-B*44:02 (Homo sapiens, UniProt P01889, A223V/A65T/A93T/A95T/D201E/D98Y/E176V/E187L/E204Q/E69K/G107R/H137Y/K202T/L105A/L119I/N104T/N87E/Q56L/Q94N/R106L/R155S/R180D/S101N/S121R/S35A/S48T/T118I/V36M/W191S/Y140D/Y91S). The description is as above. To be noted: peptide exchange yield. The method in brief:
as §1
On to “423 (SEVPTGTTA; listed as Homo sapiens) [compound 423]”, for which the Peptide exchange result is ““++” (>20% = ++)”.

Regarding “419 (HEFGHVLGL; listed as Homo sapiens) [compound 419]”, the Peptide exchange result is recorded as ““++” (>20% = ++)”.

With “52 (AEFLLRIFL; listed as Homo sapiens) [compound 52]”, the Peptide exchange result was ““++” (>20% = ++)”.

Turning to “198 (QEAARAAL; listed as Homo sapiens) [compound 198]”, the Peptide exchange result was ““++” (>20% = ++)”.

Take “410 (SEDPSKLEA; listed as Homo sapiens) [compound 410]”: the Peptide exchange entry was ““+” (>10% = +)”.

As to “197 (AEVLLPRLV; listed as Homo sapiens) [compound 197]”, the Peptide exchange entry is ““+++” (>50 = +++)”.

As to “176 (AEIEPKADGSW; listed as Homo sapiens) [compound 176]”, the Peptide exchange result is listed as ““+++” (>50 = +++)”.

In the case of “59 (SENVTMKVV; listed as Homo sapiens) [compound 59]”, the Peptide exchange result is ““+++” (>50 = +++)”.

In the case of “182 (KEATEAQSL; listed as Homo sapiens) [compound 182]”, the Peptide exchange result was ““+++” (>50 = +++)”.

As for “202 (HESEATASW; listed as Homo sapiens) [compound 202]”, the Peptide exchange result is ““+++” (>50 = +++)”.

With “405 (NEIWTHSY; listed as Homo sapiens) [compound 405]”, the Peptide exchange result is listed as ““+” (>10% = +)”.

Take “409 (REFVLSKGDAGL; listed as Homo sapiens) [compound 409]”: the Peptide exchange entry is recorded as ““+++” (>50 = +++)”.

On to “206 (SESVTSRTSY; listed as Homo sapiens) [compound 206]”, for which the Peptide exchange entry was ““+++” (>50 = +++)”.

For “406 (EDGRLVIEF; listed as Homo sapiens) [compound 406]”, the Peptide exchange entry is ““+” (>10% = +)”.

On to “429 (REKFIASVI; listed as Homo sapiens) [compound 429]”, for which the Peptide exchange entry is recorded as ““++” (>20% = ++)”.

With “181 (GEGPKTSW; listed as Homo sapiens) [compound 181]”, the Peptide exchange result was ““++” (>20% = ++)”.

Consider “193 (LEAQQEAL; listed as Homo sapiens) [compound 193]”, for which the Peptide exchange entry is ““++” (>20% = ++)”.

Take “53 (MEHPGKLLF; listed as Homo sapiens) [compound 53]”: the Peptide exchange result was ““+++” (>50 = +++)”.

Regarding “212 (MEQKQLQKRF; listed as Homo sapiens) [compound 212]”, the Peptide exchange result is ““+++” (>50 = +++)”.

As to “178 (NELFRDGVNW; listed as Homo sapiens) [compound 178]”, the Peptide exchange entry is reported as ““+++” (>50 = +++)”.

Take “199 (REIDESLIFY; listed as Homo sapiens) [compound 199]”: the Peptide exchange result is listed as ““+++” (>50 = +++)”.

For the substance “408 (LEKALQVF; listed as Homo sapiens) [compound 408]”, the Peptide exchange result is recorded as ““++” (>20% = ++)”.

Take “54 (AEITITTQTGY; listed as Homo sapiens) [compound 54]”: the Peptide exchange result is on record as ““+++” (>50 = +++)”.

Turning to “402 (RELANDELIL; listed as Homo sapiens) [compound 402]”, the Peptide exchange entry is ““++” (>20% = ++)”.

Regarding “425 (SEVPLPMAI; listed as Homo sapiens) [compound 425]”, the Peptide exchange result is ““+++” (>50 = +++)”.

As for “208 (TEVSRTEAI; listed as Homo sapiens) [compound 208]”, the Peptide exchange entry was ““++” (>20% = ++)”.

As to “195 (AEDKRHYSV; listed as Homo sapiens) [compound 195]”, the Peptide exchange entry is recorded as ““++” (>20% = ++)”.

With “412 (QEILTQVKQ; listed as Homo sapiens) [compound 412]”, the Peptide exchange result is ““++” (>20% = ++)”.

As to “196 (REMPGGPVW; listed as Homo sapiens) [compound 196]”, the Peptide exchange entry is recorded as ““+++” (>50 = +++)”.

As to “438 (SEVDSPNVL; listed as Homo sapiens) [compound 438]”, the Peptide exchange entry is ““+++” (>50 = +++)”.

With “186 (REGPEEPGL; listed as Homo sapiens) [compound 186]”, the Peptide exchange entry is recorded as ““++” (>20% = ++)”.

For “187 (GEAQTRIAW; listed as Homo sapiens) [compound 187]”, the Peptide exchange entry was ““+++” (>50 = +++)”.

For “433 (SDSQVRAF; listed as Homo sapiens) [compound 433]”, the Peptide exchange result is ““+” (>10% = +)”.

For “421 (GEPATTVSL; listed as Homo sapiens) [compound 421]”, the Peptide exchange result was ““++” (>20% = ++)”.

For the substance “174 (AEATARLNVF; listed as Homo sapiens) [compound 174]”, the Peptide exchange entry is listed as ““++++” (>75% = ++++)”.

Turning to “56 (SEPDTTASW; listed as Homo sapiens) [compound 56]”, the Peptide exchange result is on record as ““+++” (>50 = +++)”.

In the case of “189 (KEFLFNMY; listed as Homo sapiens) [compound 189]”, the Peptide exchange result is listed as ““++” (>20% = ++)”.

With “55 (HETETRTTW; listed as Homo sapiens) [compound 55]”, the Peptide exchange entry is reported as ““+++” (>50 = +++)”.

For “180 (REAGDEFELRY; listed as Homo sapiens) [compound 180]”, the Peptide exchange entry was ““++” (>20% = ++)”.

As for “184 (AELEALTDLW; listed as Homo sapiens) [compound 184]”, the Peptide exchange result is on record as ““+++” (>50 = +++)”.

For the substance “200 (AESIPTVSF; listed as Homo sapiens) [compound 200]”, the Peptide exchange result is given as ““+++” (>50 = +++)”.

For “58 (GEMEQKQL; listed as Homo sapiens) [compound 58]”, the Peptide exchange entry is recorded as ““++” (>20% = ++)”.

“204 (RETSTSEETSL; listed as Homo sapiens) [compound 204]”: the Peptide exchange entry was ““+++” (>50 = +++)”.

In the case of “177 (TEVGTMNLF; listed as Homo sapiens) [compound 177]”, the Peptide exchange entry is ““+++” (>50 = +++)”.

With “404 (NEAIMHQY; listed as Homo sapiens) [compound 404]”, the Peptide exchange result is ““++” (>20% = ++)”.

For the substance “436 (REPGDIFSEL; listed as Homo sapiens) [compound 436]”, the Peptide exchange result was ““++” (>20% = ++)”.
